Laboratory results published in the nanobody polyreactivity screen of Harvey et al. (2022).

Assay: yeast display, Sf9 membrane polyspecificity reagent, FACS + sequencing; frameworks hold sequencing errors
Method in brief: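 Nanobodies came from a synthetic yeast display library in Saccharomyces cerevisiae BJ5465, induced with galactose for 36–48 hours and stained for 1 hour at 4 °C with 10% biotinylated, detergent-solubilized Sf9 membrane reagent. Cells were enriched on streptavidin microbeads and then FACS-sorted, with low and high (top ~1%) gates set on anti-HA fluorescence for expression and streptavidin fluorescence for reagent binding. Each polyreactivity label reflects the gate a clone came from. Genes were amplified by colony PCR, sequenced by MiSeq 2 × 250 and filtered by CDR length.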

Question: With “QVQLVESGGGLVQAGGRLRLSCAASGSIFGVYDMGWYRQAPGKERELVAVINSNGGSTYYADSVKGRFTISRDNAKNTVYLQMNSLKPEDTAVYYCAAERATVKFGYWGQGTQVTVSS” as the sequence, how does the “polyreactivity (PSR sort gate)” value read?
Answer: Its value is “low polyreactivity”.

Question: Which “polyreactivity (PSR sort gate)” value does the source give for “QVQLVESGGGLVQAGGRLRLSCAASGSIFRRYAMGWYRQAPGKERELVAAISSTPITYYADSVKGRFTISRDNAKNTVYLQMNSLKPEDTAVYYCAAELLLSYYYGLEDDYWGQGTQVTVSS” here?
Answer: Its value is “low polyreactivity”.

Question: With “QVQLVESGGGLVQAGGRLRLSCAASGSIFRSNVMGWYIQAPGKEREMVASITSGGITYADSVNGRFTISRDNAQNTVYLQMNSLKPEDTAVYYCDTVRRYAMSPYKGRYDYWGQGTQVTVSS” as the sequence, how does the “polyreactivity (PSR sort gate)” value read?
Answer: The value was “low polyreactivity”.

Question: With “QVQLVESGGGLVQAGGRLRLSCAASGSIFSHNVMGWYRQAPGKEGELVAAITYRGGSTYYADSVKGRFTISRDNAKNTVYLQMNSLKPEDTAVYYCSALNEVSTYHGFDYWGQGTQVTVSS” as the sequence, how does the “polyreactivity (PSR sort gate)” value read?
Answer: The value was “low polyreactivity”.

Question: For “QVQLVESGGGLVQAGGRLRLSCAASGSIFSYYAMGWYRQAPGKERELVAAITANGGSTYYADSVKGRFTISRDNAKNTVYLQMNSLKPADTAVYYCAADYYWGYDCGQGTQVTVSS”, which “polyreactivity (PSR sort gate)” value is on record?
Answer: Its value is “low polyreactivity”.

Question: With “QVQLVESGGGLVQAGGRLRLSCAASGSIFTYNAMGWYIQAPGKERELVAAISASGGRTYYADSVKGRFTISRDNAKNTVYLQMNILKPEDTAVYYCAARIRVSGLRRFDYWGQGTQVTVSS” as the sequence, how does the “polyreactivity (PSR sort gate)” value read?
Answer: Its value is “high polyreactivity”.

Question: Which “polyreactivity (PSR sort gate)” value does the source give for “QVQLVESGGGLVQAGGRLRLSCAASGSIFVIYGMGWYRQAPGKERELVAAISDRGGSTYYADSVKGRFTISRDNAKNTVYLQMNSLKPEDTAVYYCAADRQYRYATRYDYWGQGTQVTVSS” here?
Answer: The value was “low polyreactivity”.

Question: Which “polyreactivity (PSR sort gate)” value does the source give for “QVQLVESGGGLVQAGGRLRLSCAASGSIFYHYAMGWSRQAPGKERELVAAISQSGGGTYYADSVKGRFTISRDYAKNTVYLQMNSLKPEDTAVYYCAADRTGPYDYWGQGTQVTVSS” here?
Answer: Its value is “high polyreactivity”.

Question: Which “polyreactivity (PSR sort gate)” value does the source give for “QVQLVESGGGLVQAGGRLRLSCAASGSIIHYYTMGWSRQAPGKERELVAAINWSGTRTYYADSVKGRFTISRDNAKNTVYLQMNSLKPEDTAVYYCAAESYYPAGIRVYWGQGTQVTVSS” here?
Answer: Its value is “high polyreactivity”.

Question: For “QVQLVESGGGLVQAGGRLRLSCAASGSILGAYTMGWYRQAPGKERELVAAITRRGGSTYYSDSVKGRFTISRDNAKNTVYLQMNSLKPEDTAVYYCNAEYGVWYDYLVGPYDYWGQGNQVTVSS”, which “polyreactivity (PSR sort gate)” value is on record?
Answer: The value was “low polyreactivity”.

Question: For “QVQLVESGGGLVQAGGRLRLSCAASGSTFGGNAMGWSRQAPGKERELVATISNSGGRTYYADSVKGRFTISRDNAKNTVYLQMNSLKPEDTAVYYCAADHPAFGPGYSFDYWGQGTQVTVSS”, which “polyreactivity (PSR sort gate)” value is on record?
Answer: Its value is “low polyreactivity”.

Question: With “QVQLVESGGGLVQAGGRLRLSCAASGSTFGLNAMGWYRQAPGTERELVAAITSRGTRTYYADSVKGRFTISRDNAKNTVYLQMNSLKTEDTAGYKCAKDSGATRYGEYDYWGQGTQVTVSS” as the sequence, how does the “polyreactivity (PSR sort gate)” value read?
Answer: Its value is “low polyreactivity”.

Question: For “QVQLVESGGGLVQAGGRLRLSCAASGSTFLSNDMGWYRQAPGKERELVAAISQSGGNTYYADSVKGRFTISRDKAKNTVYLQMNSVKPEDTAVYYWAALDYWVQGTQVTVSS”, which “polyreactivity (PSR sort gate)” value is on record?
Answer: The value was “low polyreactivity”.

Question: With “QVQLVESGGGLVQAGGRLRLSCAASGSTFVLNDRGWYRQPPGKEREFVAAIDTSGGTTSYADSVKGRFTISRDNAKNTVYLQMNSLKPEDTAVYYCAALWFTRVHLFDSWGQGPQVTVSS” as the sequence, how does the “polyreactivity (PSR sort gate)” value read?
Answer: The value was “low polyreactivity”.

Question: Which “polyreactivity (PSR sort gate)” value does the source give for “QVQLVESGGGLVQAGGRLRLSCAASGSTIKFNAMGWYRQAPGKERELVAAISRGGRTNYADSVKGRFTISRDNAKYTVYLQMNSLKPEDTAVYKCAKDVAGLFHVGALYYYWGQGTQVTVSS” here?
Answer: Its value is “low polyreactivity”.

Question: With “QVQLVESGGGLVQAGGRLRLSCAASGSTIPPSAMGWYRQSPGKERELVAAITSGGSTYYADSVKGRLTISRDNAKNTVYIQLNSLKPEDTAVYYCNADQQTIRSAKNDYWGQGTQVTVSS” as the sequence, how does the “polyreactivity (PSR sort gate)” value read?
Answer: The value was “low polyreactivity”.

Question: For “QVQLVESGGGLVQAGGRLRLSCAASGSTITYYTMGWYRQAPGKERELVAAISGSGGRTYYADSVKGRFTISRDNAKNTVYLQMNSLKPEDTAVYYCAAVYQLSRYDYWGQGTQVTVSS”, which “polyreactivity (PSR sort gate)” value is on record?
Answer: The value was “high polyreactivity”.

Question: With “QVQLVESGGGLVQAGGRLRLSCAASGSTLSLYDMGRYRQAPGKERELVAAITSSGGTYYADSVKGRFTISRDNAKNTVFLQMKSLKPEDTAVYYCNAYAKDARSYGFHRVNYWGQGTQVTVSS” as the sequence, how does the “polyreactivity (PSR sort gate)” value read?
Answer: The value was “high polyreactivity”.

Question: With “QVQLVESGGGLVQAGGRLRLSCAASGSTNYRYAMRWYRQAPGKERELVATISRTGARTNYADSVKGRFTISRDNAKNTVYLQMNSLKPEDTAVYYCAASAPYIYYWGQGTQVTVSS” as the sequence, how does the “polyreactivity (PSR sort gate)” value read?
Answer: Its value is “high polyreactivity”.

Question: For “QVQLVESGGGLVQAGGRLRLSCAASGSTSTLYAMGWYRQAPGKERELVAAISKSGGRTYYADSVKGRFTSSRDNAKNTVDLQMNSLKPEDTAVYYCAALAVYPRRFDYWGQGTQVTVSS”, which “polyreactivity (PSR sort gate)” value is on record?
Answer: The value was “high polyreactivity”.

Question: With “QVQLVESGGGLVQAGGRLRLSCAASGYIFKNYAMGWDRQAPGKERELVATINYSGGGTYYADSVKGRFTISRDNAKNTVYLQMNSLKQEDTAVYYCAAREKYISYSYYYWGQGTQVTVSS” as the sequence, how does the “polyreactivity (PSR sort gate)” value read?
Answer: Its value is “high polyreactivity”.

Question: For “QVQLVESGGGLVQAGGRLRLSCAASVGIFYYYAMGWYRQAPGKERELVATITYTGGSTYADSVKGRFTISRDNAKNTVYLQMNSLKPEDTAVYYCAADGRSRSYYGYDHWGQGTQVTVSS”, which “polyreactivity (PSR sort gate)” value is on record?
Answer: The value was “low polyreactivity”.

Question: For “QVQLVESGGGLVQAGGRLRLSCAASVRTFYYYVMGWYRQEPGNERELVAAISSGGSTYYADSVKGRFTISRDNAKNTVYLQMNSLKPEDTAVYYGAATKRYRDSYDYDYWGQGTQVTVSS”, which “polyreactivity (PSR sort gate)” value is on record?
Answer: The value was “high polyreactivity”.

Question: Which “polyreactivity (PSR sort gate)” value does the source give for “QVQLVESGGGLVQAGGRLRLSCAAYGSIFDFYAMGWYRQAPGKERELVAAISGSGGSTYYADSVKGRFTISRDNAKNTVYLQMNSLKPEDTEVYYCSYYYWGQGTQETVSS” here?
Answer: Its value is “low polyreactivity”.

Question: With “QVQLVESGGGLVQAGGRLRLSCADSGSTFLYNAMGWYRQAPGKERELVAAITSDGSTSYADSVKGRFTISRDNAKNTVYLQMNSLKPEDTALYYSAAYGFQHLSSLPFSRHNYWGQGTQVTVSS” as the sequence, how does the “polyreactivity (PSR sort gate)” value read?
Answer: Its value is “low polyreactivity”.

Question: Which “polyreactivity (PSR sort gate)” value does the source give for “QVQLVESGGGLVQAGGRLRLSCADSGSTFWSYAIGWYRQSPGKEREFVAAISSSDDSTYYADSVKGRFTISRDNAKNTVYLQMNSLKPEDTAVYYCATSWYIYPFDYWGQGTQVTVSS” here?
Answer: The value was “low polyreactivity”.

Question: Which “polyreactivity (PSR sort gate)” value does the source give for “QVQLVESGGGLVQAGGRLRLSCAPSGLIFYGYAMGWYRQAPGKERELVAAISGSGGRTYYADSVKGRYTISRDNAKNTVYLEMNSLKPEDSAVYYCAGKVPRFGAPGVNYWGQGTQVTVSS” here?
Answer: Its value is “high polyreactivity”.

Question: For “QVQLVESGGGLVQAGGRLRLSCPASGLIFSYYAMGWYRQEPGKERELVAAISRGGSTNYADSVKGRFTISRDNAKNTVYLQMNSLKPEDTAVYYCAARFVLRRDYGYWGQGTQVTVSS”, which “polyreactivity (PSR sort gate)” value is on record?
Answer: Its value is “high polyreactivity”.

Question: With “QVQLVESGGGLVQAGGRLRLSCPASGRTFPPYAMGWYRQAPGKERELVGAISRRAGTTYYADSVKGRFTISRDNAKNTVYLQMNSLKPEDTAVYYCAALTESSSYGYWGLGTQVTVSS” as the sequence, how does the “polyreactivity (PSR sort gate)” value read?
Answer: The value was “low polyreactivity”.

Question: For “QVQLVESGGGLVQAGGRLRLSSAASGFIFAYNAMGWYRQGPGKERELVASIRTRGGSTYYADSVKGRFTISRDNAKNTVYLQMNSLKPEDTSVYYCAARPFPRRYDYWGQGSQVTVSS”, which “polyreactivity (PSR sort gate)” value is on record?
Answer: Its value is “low polyreactivity”.
